Laboratory results: patent US20220363770A1 (Amgen, published 2022)

Key:
human CGRP receptor = human CGRP receptor (human, UniProt Q16602 23-461; O60894 27-148); test: cell-based or functional assay
human PAC1 receptor = target: T1, human PAC1 receptor (human, UniProt P41586 24-468); test: cell-based or functional assay
T1 sequence: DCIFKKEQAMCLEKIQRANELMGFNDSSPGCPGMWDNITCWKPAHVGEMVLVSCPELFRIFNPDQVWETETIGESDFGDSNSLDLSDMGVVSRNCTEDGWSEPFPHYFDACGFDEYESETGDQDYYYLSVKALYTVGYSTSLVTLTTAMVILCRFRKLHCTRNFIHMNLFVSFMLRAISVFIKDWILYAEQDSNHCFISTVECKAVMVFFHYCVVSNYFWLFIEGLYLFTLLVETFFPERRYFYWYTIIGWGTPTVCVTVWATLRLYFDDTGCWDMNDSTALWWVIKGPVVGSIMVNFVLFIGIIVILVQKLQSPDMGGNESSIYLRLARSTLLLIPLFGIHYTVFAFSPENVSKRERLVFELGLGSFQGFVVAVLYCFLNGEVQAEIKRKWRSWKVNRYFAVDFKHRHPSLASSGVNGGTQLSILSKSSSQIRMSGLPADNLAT

Chain of human CGRP receptor (Q16602 23-461 limits assumed, chain 1 of 2): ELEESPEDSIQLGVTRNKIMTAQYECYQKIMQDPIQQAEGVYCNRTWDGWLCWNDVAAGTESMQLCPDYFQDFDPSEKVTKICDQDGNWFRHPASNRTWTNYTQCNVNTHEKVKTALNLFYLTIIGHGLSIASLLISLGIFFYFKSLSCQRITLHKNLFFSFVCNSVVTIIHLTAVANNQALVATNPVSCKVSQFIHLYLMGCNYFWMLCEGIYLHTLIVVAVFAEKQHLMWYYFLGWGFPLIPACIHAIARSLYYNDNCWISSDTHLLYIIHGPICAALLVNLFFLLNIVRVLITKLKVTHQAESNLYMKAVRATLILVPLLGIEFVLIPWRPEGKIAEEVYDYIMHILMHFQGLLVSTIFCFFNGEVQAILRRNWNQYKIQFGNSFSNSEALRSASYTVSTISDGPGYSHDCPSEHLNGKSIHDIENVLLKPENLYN
Chain of human CGRP receptor (O60894 27-148 limits assumed, chain 2 of 2): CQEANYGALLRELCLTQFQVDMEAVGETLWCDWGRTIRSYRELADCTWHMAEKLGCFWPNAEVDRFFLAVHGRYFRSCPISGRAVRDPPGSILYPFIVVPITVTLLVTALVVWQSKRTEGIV

Binder	Fold-improvement over 4E4 Ab (human CGRP receptor)	IC50 (human CGRP receptor)	Fold-improvement over 29G4v22 Ab (human PAC1 receptor)	IC50 (human PAC1 receptor)
iPS:454867 (bispecific antibody, human IgG1, kappa, lambda, N297G) light 1: QSVLTQPPSVSAAPGQKVTISCSGSSSNIGNNYVSWYQQLPGTAPKLLIYDNNKRPSGIPDRFSGSKSGTSTTLGITGLQTGDEADYYCGTWDSRLSAVVFGGGTKLTVLGQPKAAPSVTLFPPSSEELQANKATLVCLISDFYPGAVTVAWKADSSPVKAGVETTTPSKQSNNKYAAKSYLSLTPEQWKSHRSYSCQVTHEGSTVEKTVAPTECS heavy 1: QVQLVESGGGVVQPGRSLRLSCAASGFTFSSFGMHWVRQAPGKGLEWVAVISFDGSIKYSVDSVKGRFTISRDNSKNTLFLQMNSLRAEDTAVYYCARDRLNYYRSFGYYGYHYYGMAVWGQGTTVTVSSASTKGPSVFPLAPSSKSTSGGTAALGCLVKDYFPEPVTVSWNSGALTSGVHTFPAVLQSSGLYSLESVVTVPSSSLGTQTYICNVNHKPSNTKVDKKVEPKSCDKTHTCPPCPAPELLGGPSVFLFPPKPKDTLMISRTPEVTCVVVDVSHEDPEVKFNWYVDGVEVHNAKTKPCEEQYGSTYRCVSVLTVLHQDWLNGKEYKCKVSNKALPAPIEKTISKAKGQPREPQVYTLPPSRKKMTKNQVSLTCLVKGFYPSDIAVEWESNGQPENNYKTTPPVLKSDGSFFLYSKLTVDKSRWQQGNVFSCSVMHEALHNHYTQKSLSLSPGK light 2: EIVLTQSPATLSLSPGERATLSCRASKSVGWSLHWYQQKPGQAPRLLIKYASQSLSGIPARFSGSGSGTDFTLTISSLEPEDFAVYYCHQSSRLPFTFGPGTKVDIKRTVAAPSVFIFPPSDEQLKSGTASVVCLLNNFYPREAKVQWKVDNALQSGNSQESVTEQDSKDSTYSLESTLTLSKADYEKHKVYACEVTHQGLSSPVTKSFNRGEC heavy 2: not shown	0.4 fold	1.55 nM	6.5 fold	0.98 nM
iPS:454873 (bispecific antibody, human IgG1, kappa, lambda, N297G) light 1: QSVLTQPPSVSAAPGQKVTISCSGSSSNIGNNYVSWYQQLPGTAPKLLIYDNNKRPSGIPDRFSGSKSGTSTTLGITGLQTGDEADYYCGTWDSRLSAVVFGGGTKLTVLGQPKAAPSVTLFPPSSEELQANKATLVCLISDFYPGAVTVAWKADSSPVKAGVETTTPSKQSNNKYAAKSYLSLTPEQWKSHRSYSCQVTHEGSTVEKTVAPTECS heavy 1: QVQLVESGGGVVQPGRSLRLSCAASGFTFSSFGMHWVRQAPGKGLEWVAVISFDGSIKYSVDSVKGRFTISRDNSKNTLFLQMNSLRAEDTAVYYCARDRLNYYRSFGYYGYHYYGMAVWGQGTTVTVSSASTKGPSVFPLAPSSKSTSGGTAALGCLVKDYFPEPVTVSWNSGALTSGVHTFPAVLQSSGLYSLESVVTVPSSSLGTQTYICNVNHKPSNTKVDKKVEPKSCDKTHTCPPCPAPELLGGPSVFLFPPKPKDTLMISRTPEVTCVVVDVSHEDPEVKFNWYVDGVEVHNAKTKPCEEQYGSTYRCVSVLTVLHQDWLNGKEYKCKVSNKALPAPIEKTISKAKGQPREPQVYTLPPSRKKMTKNQVSLTCLVKGFYPSDIAVEWESNGQPENNYKTTPPVLKSDGSFFLYSKLTVDKSRWQQGNVFSCSVMHEALHNHYTQKSLSLSPGK light 2: EIVLTQSPATLSLSPGERATLSCRASKAVGFSLHWYQQKPGQAPRLLIKYASQSLSGIPARFSGSGSGTDFTLTISSLEPEDFAVYYCHQSSFLPFTFGPGTKVDIKRTVAAPSVFIFPPSDEQLKSGTASVVCLLNNFYPREAKVQWKVDNALQSGNSQESVTEQDSKDSTYSLESTLTLSKADYEKHKVYACEVTHQGLSSPVTKSFNRGEC heavy 2: not shown	0.2 fold	2.13 nM	4.4 fold	1.32 nM
iPS:454875 (bispecific antibody, human IgG1, kappa, lambda, N297G) light 1: QSVLTQPPSVSAAPGQKVTISCSGSSSNIGNNYVSWYQQLPGTAPKLLIYDNNKRPSGIPDRFSGSKSGTSTTLGITGLQTGDEADYYCGTWDSRLSAVVFGGGTKLTVLGQPKAAPSVTLFPPSSEELQANKATLVCLISDFYPGAVTVAWKADSSPVKAGVETTTPSKQSNNKYAAKSYLSLTPEQWKSHRSYSCQVTHEGSTVEKTVAPTECS heavy 1: QVQLVESGGGVVQPGRSLRLSCAASGFTFSSFGMHWVRQAPGKGLEWVAVISFDGSIKYSVDSVKGRFTISRDNSKNTLFLQMNSLRAEDTAVYYCARDRLNYYRSFGYYGYHYYGMAVWGQGTTVTVSSASTKGPSVFPLAPSSKSTSGGTAALGCLVKDYFPEPVTVSWNSGALTSGVHTFPAVLQSSGLYSLESVVTVPSSSLGTQTYICNVNHKPSNTKVDKKVEPKSCDKTHTCPPCPAPELLGGPSVFLFPPKPKDTLMISRTPEVTCVVVDVSHEDPEVKFNWYVDGVEVHNAKTKPCEEQYGSTYRCVSVLTVLHQDWLNGKEYKCKVSNKALPAPIEKTISKAKGQPREPQVYTLPPSRKKMTKNQVSLTCLVKGFYPSDIAVEWESNGQPENNYKTTPPVLKSDGSFFLYSKLTVDKSRWQQGNVFSCSVMHEALHNHYTQKSLSLSPGK light 2: EIVLTQSPATLSLSPGERATLSCRASRAVSNLHWYQQKPGQAPRLLIKYASQSLSGIPARFSGSGSGTDFTLTISSLEPEDFAVYYCHQSSYLPFTFGPGTKVDIKRTVAAPSVFIFPPSDEQLKSGTASVVCLLNNFYPREAKVQWKVDNALQSGNSQESVTEQDSKDSTYSLESTLTLSKADYEKHKVYACEVTHQGLSSPVTKSFNRGEC heavy 2: not shown	0.3 fold	1.7 nM	1.9 fold	3 nM
iPS:454871 (bispecific antibody, human IgG1, kappa, lambda, N297G) light 1: QSVLTQPPSVSAAPGQKVTISCSGSSSNIGNNYVSWYQQLPGTAPKLLIYDNNKRPSGIPDRFSGSKSGTSTTLGITGLQTGDEADYYCGTWDSRLSAVVFGGGTKLTVLGQPKAAPSVTLFPPSSEELQANKATLVCLISDFYPGAVTVAWKADSSPVKAGVETTTPSKQSNNKYAAKSYLSLTPEQWKSHRSYSCQVTHEGSTVEKTVAPTECS heavy 1: QVQLVESGGGVVQPGRSLRLSCAASGFTFSSFGMHWVRQAPGKGLEWVAVISFDGSIKYSVDSVKGRFTISRDNSKNTLFLQMNSLRAEDTAVYYCARDRLNYYRSFGYYGYHYYGMAVWGQGTTVTVSSASTKGPSVFPLAPSSKSTSGGTAALGCLVKDYFPEPVTVSWNSGALTSGVHTFPAVLQSSGLYSLESVVTVPSSSLGTQTYICNVNHKPSNTKVDKKVEPKSCDKTHTCPPCPAPELLGGPSVFLFPPKPKDTLMISRTPEVTCVVVDVSHEDPEVKFNWYVDGVEVHNAKTKPCEEQYGSTYRCVSVLTVLHQDWLNGKEYKCKVSNKALPAPIEKTISKAKGQPREPQVYTLPPSRKKMTKNQVSLTCLVKGFYPSDIAVEWESNGQPENNYKTTPPVLKSDGSFFLYSKLTVDKSRWQQGNVFSCSVMHEALHNHYTQKSLSLSPGK light 2: EIVLTQSPATLSLSPGERATLSCRASKSVGQSLHWYQQKPGQAPRLLIKYASQSLSGIPARFSGSGSGTDFTLTISSLEPEDFAVYYCHQSSRLPFTFGPGTKVDIKRTVAAPSVFIFPPSDEQLKSGTASVVCLLNNFYPREAKVQWKVDNALQSGNSQESVTEQDSKDSTYSLESTLTLSKADYEKHKVYACEVTHQGLSSPVTKSFNRGEC heavy 2: not shown	0.2 fold	2.3 nM	3.3 fold	1.74 nM
iPS:454869 (bispecific antibody, human IgG1, kappa, lambda, N297G) light 1: QSVLTQPPSVSAAPGQKVTISCSGSSSNIGNNYVSWYQQLPGTAPKLLIYDNNKRPSGIPDRFSGSKSGTSTTLGITGLQTGDEADYYCGTWDSRLSAVVFGGGTKLTVLGQPKAAPSVTLFPPSSEELQANKATLVCLISDFYPGAVTVAWKADSSPVKAGVETTTPSKQSNNKYAAKSYLSLTPEQWKSHRSYSCQVTHEGSTVEKTVAPTECS heavy 1: QVQLVESGGGVVQPGRSLRLSCAASGFTFSSFGMHWVRQAPGKGLEWVAVISFDGSIKYSVDSVKGRFTISRDNSKNTLFLQMNSLRAEDTAVYYCARDRLNYYRSFGYYGYHYYGMAVWGQGTTVTVSSASTKGPSVFPLAPSSKSTSGGTAALGCLVKDYFPEPVTVSWNSGALTSGVHTFPAVLQSSGLYSLESVVTVPSSSLGTQTYICNVNHKPSNTKVDKKVEPKSCDKTHTCPPCPAPELLGGPSVFLFPPKPKDTLMISRTPEVTCVVVDVSHEDPEVKFNWYVDGVEVHNAKTKPCEEQYGSTYRCVSVLTVLHQDWLNGKEYKCKVSNKALPAPIEKTISKAKGQPREPQVYTLPPSRKKMTKNQVSLTCLVKGFYPSDIAVEWESNGQPENNYKTTPPVLKSDGSFFLYSKLTVDKSRWQQGNVFSCSVMHEALHNHYTQKSLSLSPGK light 2: EIVLTQSPATLSLSPGERATLSCRASKSVGQSLHWYQQKPGQAPRLLIKYASQSLSGIPARFSGSGSGTDFTLTISSLEPEDFAVYYCHQSSRLPFTFGPGTKVDIKRTVAAPSVFIFPPSDEQLKSGTASVVCLLNNFYPREAKVQWKVDNALQSGNSQESVTEQDSKDSTYSLESTLTLSKADYEKHKVYACEVTHQGLSSPVTKSFNRGEC heavy 2: not shown	0.4 fold	1.65 nM	5.8 fold	1.1 nM
